Assay results published in patent US10538591B2, “Anti-fibulin-3 antibodies and uses thereof” (THE BRIGHAM AND WOMEN'S HOSPITAL, INC., priority 2014, dated 2020).
“Also recorded” adds a separate entry of the source.

What was measured:
[1] = mouse, in vivo
normal adult human brain = assay: Immunohistochemistry of normal adult human brain sections; conditions: anti-Fib3/911 10 μg/ml, mAb428.3C11 40 μg/ml, mAb3-5 5 μg/ml
Protocol: Frozen sections of human primary glioblastoma and normal adult human brain were fixed in ethanol/acetate buffer and processed for immunohistochemistry with the following anti-fibulin-3 antibodies: rabbit polyclonal anti-Fib3/911 (10 μg/ml), mouse monoclonal anti-fibulin-3 mAb428.3C11 (40 μg/ml), and a commercial mouse monoclonal antibody against human fibulin-3 (mAb3-5, 5 μg/ml, Santa Cruz Biotechnology). […] Both in-house generated antibodies show stronger staining in the tumor parenchyma compared to the commercial antibody. In all cases, staining is particularly intense around tumor blood vessels. […] Sections were counterstained to identify endothelial markers and cell nuclei by staining with anti-CD31 and DAPI respectively. (Data not shown).

fibulin-5 = biological target: T1, fibulin-5 (Homo sapiens, UniProt Q9UBX5); assay: Cross-reactivity against homologous fibulin-5; format: binding
T1 sequence (Q9UBX5 24-448): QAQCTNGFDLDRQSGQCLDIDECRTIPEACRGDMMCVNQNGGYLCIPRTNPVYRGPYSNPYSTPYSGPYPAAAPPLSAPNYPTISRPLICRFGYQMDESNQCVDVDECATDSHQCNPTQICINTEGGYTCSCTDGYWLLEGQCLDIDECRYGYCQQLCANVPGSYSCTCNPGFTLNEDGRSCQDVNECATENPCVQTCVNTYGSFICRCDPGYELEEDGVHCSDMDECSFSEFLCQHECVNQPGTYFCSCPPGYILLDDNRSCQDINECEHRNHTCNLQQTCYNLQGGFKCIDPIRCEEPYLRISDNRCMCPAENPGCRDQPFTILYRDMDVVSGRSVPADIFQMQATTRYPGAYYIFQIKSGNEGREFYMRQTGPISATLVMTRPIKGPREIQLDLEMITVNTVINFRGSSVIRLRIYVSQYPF

[2] = tested on: fibulin-3-induced Notch signaling; assay: Notch-reporter luminescent assay in CNS1 glioma cells transfected with fibulin-3 cDNA; format: cell-based; conditions: for effect on fibulin-3-induced Notch activity: monoclonal antibody 100 μg/ml, 0, 2, 6 and 24 h
Protocol: Glioma cells (CNS I line) carrying a Notch-reporter luminescent system were transfected with fibulin-3 cDNA (or a control plasmid) and incubated in serum-free conditions for 24 h.
Antibodies against fibulin-3 block the molecular mechanism triggered by this protein. To confirm whether the cytotoxic effects were related to specific inhibition of the molecular mechanisms of fibulin-3, the antibody anti-Fib3/911 was added to glioma cells (CNS1 cell line) that had been transfected to overexpress fibulin-3. Overexpression of fibulin-3 in the glioma cells increased Notch signaling activity as expected.
Glioma cells (CNS1 line) carrying a Notch-driven luminescent reporter system were transfected with fibulin-3 cDNA (Fib3 OE) or a control plasmid (Control) and incubated in serum-free conditions for 24 h. The following day the antibodies anti-Fib3/911 (50 μg/ml) or mAb428.3C11 (100 μg/ml) were added to the cultures and Notch activity was measured after 0, 2, 6, and 24 h.
Glioma cells (CNS1 line) carrying a Notch-driven luminescent reporter system were transfected with fibulin-3 cDNA (Fib3 OE) or a control plasmid (Control) and incubated in serum-free conditions for 24 h. Results on the left panel show the effect of adding mAb428.2 (100 μg/ml), followed by measurement of Notch activity after 0, 2, 6, and 24 h. Results on the right panel show the effect of adding variable concentrations of mAb428.2 (0, 5, 10, 25, 50, and 100 μg/ml), followed by measurement of Notch activity after 6 h.

[3] = tested on: NFkB signaling induced by fibulin-3; assay: NF-kB luminescent reporter in U251 glioma cells transfected with fibulin-3 cDNA; format: cell-based; conditions: 100 μg/ml, 0, 2, 6 and 24 h
Protocol: Glioma cells (U251 line) were transfected with a luminescent reporter plasmid driven by NF-kB signaling (pGL4.32[luc2P/NF-κB-RE/Hygro], PROMEGA). Cells were co-transfected with plasmids carrying fibulin-3 cDNA (Fib3 OE) or a control cDNA (Control) and incubated in serum-free conditions for 24 h. The following day mAb428.2 (100 μg/ml) was added to the cultures and NFkB signaling activity was measured after 0, 2, 6, and 24 h.

B1: mAb428.2: mouse monoclonal IgG1 kappa antibody against human fibulin-3 peptide SEQ ID NO:2; VH SEQ ID NO: 3, VL SEQ ID NO: 4 (antibody, V domains shown)
VH: QIQLVQSGPELKKPGETVKISCKASGYSFTTYGMSWVKQAPGKGLKWMGWINTYSGVPTYADDFKGRFAFFLETSASTAYLQINNLKNEDTATYFCARWVDYWGQGTTLTVSS
VL: DIKMTQSPSSMYASLGERVTITCKASQDIKSYLSWHQQKPWKSPKTLIYYATSLADGVPSRFSGSGSGQDYSLTISSLESDDTATYYCLQHGKSPYTFGGGTKLEIK
accumulation in skin or connective tissues [1]: did not accumulate in these tissues | amount detected through the skull [1]: very small but higher than the amount of a control IgG1 antibody | detection in intracranial tumors [1]: not detected in significant amounts | detection in subcutaneous tumors ([1]; 2.5 mg/kg): still detectable with high intensity of fluorescence | time of accumulation in the liver ([1]; 2.5 mg/kg): >= 6 | time of accumulation of fluorescence in the bladder ([1]; 2.5 mg/kg): 2 h | time of clearance from bladder and liver ([1]; 2.5 mg/kg): >= 24 h | staining in normal brain (normal adult human brain): without cross-reactivity against normal brain | staining in normal brain (normal adult human brain; listed as mAb428.3C11): complete absence of staining in normal tissue | cross-reactivity against fibulin-5 (fibulin-5): no cross-reactivity | dependence of Notch inhibition ([2]; 0, 5, 10, 25, 50 and 100 μg/ml, 6 h, 100 μg/ml over 0-24 h): time- and concentration-dependent | effect on fibulin-3-induced Notch activity [2]: blocked fibulin-3-dependent Notch activation; also recorded: strong inhibitory effect | effect on fibulin-3-induced Notch activity ([2]; listed as mAb428.3C11): blocked | fibulin-3 effect on Notch activation ([2]; t=4 h, anti-Fib3/911 50 μg/ml, mAb428.3C11 100 μg/ml): completely abolished fibulin-3 effects on Notch activation | levels of Notch activity ([2]; t=24 h, anti-Fib3/911 50 μg/ml, mAb428.3C11 100 μg/ml): indistinguishable from controls | effect on fibulin-3-induced NFkB signaling [3]: blocking of this effect
